Measurements as given in US20250333541A1, “ANTIBODY, AND DRUG CONJUGATE AND USE THEREOF” (EVOPOINT BIOSCIENCES CO., LTD., priority 2022, published 2025).

Columns and labels:
[1] = molecular target: T1, tissue factor (TF) on the surface of TF-positive tumor cells (human, UniProt P13726 33-295); test: cell-based or functional assay
[2] = molecular target: T1, tissue factor (TF) on the surface of …; test: cell-based or functional assay; remark: listed apart in the source
[3] = molecular target: T2, human TF-His (human, UniProt P13726 33-251); test: ELISA, plate coated with h.TF-His
T2 construct: range 33-251; Recombinant extracellular segment expressed in HEK293-EBNA cells and purified on a nickel column; also called h.TF-His; h; TF-his; not shown: His tag from vector pTT5-His
Protocol: The ELISA plate was coated overnight with TF antigen (h.TF-His or c.TF-His antigen) in 50 mM carbonate coating buffer (CBS coating solution) at a coating concentration of 1 μg/mL in a volume of 100 μL at 4° C. The next day, the coating solution was removed, each well was washed once with 300 μL of PBS, and 100 μL of 2% BSA (Biotopped, A6020) in PBS was added to each well for blocking at 37° C. for 2 h. The test sample was subjected to a gradient dilution with 2% BSA in PBS to establish 11 concentration points. 100 μL of each of the samples obtained by the gradient dilution was added to the plate, and the plate was incubated at 37° C. for 2 h. The supernatant was removed, and each well was washed three times with 300 μL of PBST. 100 μL of HRP-conjugated secondary antibody in 2% BSA was added to each well, and the plate was incubated at 37° C. for 1 h. […] At the end of the incubation, the secondary antibody was removed, each well was washed five times with 300 μL of PBST, and 100 μL of TMB substrate (Huzhou InnoReagents Co., Ltd., TMB-S-004) was added to each well for color development for 5-20 min. 50 μL of 2 N HCl was added to each well to stop the reaction, and OD450 nm values were read using a microplate reader (manufacturer: MD, model: SpectraMax) and imported into GraphPad software for fitting and plotting to determine the binding of the samples to TF antigenic proteins.
The assay was performed as described in the general methods. Briefly, an ELISA plate coated with a human TF-his protein or a cynomolgus monkey TF-his protein was blocked with 2% BSA at 37° C. for 2 h, and each of the antibodies obtained by the gradient dilution (starting at 10 μg/mL, 3-fold graded dilution, 11 concentration points) was added. The plate was incubated at 37° C. for 2 h.

[4] = molecular target: T1, tissue factor (TF) on the surface of …; test: cell-based or functional assay; remark: listed apart in the source
[5] = molecular target: T1, tissue factor (TF) on the surface of …; test: cell ELISA on fixed NCI-H358 cells
Protocol: TF antigen-positive cells (MDA-MB-231 or NCI-H358 cells) were seeded into a 96-well plate at 5×10⁴ cells/well one day prior to the experiment. On the day of the experiment, the culture supernatant was removed, each well was washed once with 300 μL of PBS, and 100 μL of 4% paraformaldehyde was added to each well for immobilization at room temperature for 20 min. The paraformaldehyde was removed, and each well was washed twice with 300 μL of PBS, and 100 μL of 2% BSA in PBS was added to each well for blocking at 37° C. for 2 h. After the blocking was completed, 30 μL of the test sample (hybridoma supernatant or purified antibody) was added to each well and the plate was incubated at 37° C. for 2 h. The liquid was removed, and each well was washed three times with 300 μL of PBST. 100 μL of HRP-conjugated secondary antibody in 2% BSA was added to each well, and the plate was incubated at 37° C. for 1 h. […] The secondary antibody was removed, each well was washed five times with 300 μL of PBST, and 100 μL of TMB substrate (Huzhou InnoReagents Co., Ltd., TMB-S-004) was added to each well for color development for 5-20 min. 50 μL of 2 N HCl was added to each well to stop the reaction, and OD450 nm values were read using a microplate reader (manufacturer: MD, model: SpectraMax) to determine the binding of the samples to TF-positive cells.
The assay was performed as described in the general methods. Briefly, TF antigen-positive NCI-H358 cells were digested with trypsin, collected, seeded into a 96-well plate at 5×10⁴ cells/well and incubated overnight, and then immobilized with 4% paraformaldehyde. After the paraformaldehyde was removed and the cells were washed with PBS, the plate was blocked with 2% BSA at 37° C. for 2 h. Each of the antibodies obtained by the gradient dilution (starting at 10 μg/mL, 3-fold graded dilution, 11 concentration points) was added. The plate was incubated at 37° C. for 2 h.

Binder | IC50 (ng/mL), inhibition of FVIIa-induced IL-8 release by MDA-MB-231 cells [1] | Maximum inhibition rate (%), FVIIa-induced IL-8 release by MDA-MB-231 cells [1] | coagulation time V50 (s), MDA-MB-231 cells + human plasma, 2 mM Ca2+, 50 µg/mL antibody [2] | coagulation time V50 (s), MDA-MB-231 cells + human plasma, 5 mM Ca2+, 20 µg/mL antibody [2] | EC50 [3] | Endocytosis rate (%) on NCI-H358 cells, 2 h [4] | Endocytosis rate (%) on NCI-H358 cells, 4 h [4] | EC50 [5]
22F11H5-hz1 (antibody, human IgG1, kappa, V domains shown, Humanized IgG1 kappa) VH: QVQLVQSGAEVKQPGASVKVSCKASGYTFTTYWMHWVRQAPGQGLEWMGMIDPSDSYTTYAQKFQGRVTLTVDTSTSTAYMELSSLRSEDTAVYYCARGSGPGLFAYWGQGTLVTVSS VL: DIQETQSPSSLSASVGDRVTITCRASQDIRNYLNWYQQKPGKAPKLLIYHTSRLQSGVPSRFSGSGSGTDYTLTISSLQPEDFATYYCQQGNMPPYTFGQGTKVEIKR | 180 ng/mL | 94.3% | 1640 s | 49.4 s | 0.00858 µg/mL | 34.3% | 56.1% | 0.012 µg/mL
27H8H3-hz1 (antibody, human IgG1, kappa, V domains shown, Humanized IgG1 kappa) VH: QVQLVQSGAEVKKPGASVKVSCKASGYTFTTYWMHWVRQAPGQGLEWMGMIDPSDSYTSYAQKFQGRVTLTVDTSTSTAYMELSSLRSEDTAVYYCTRGSGPGLFAYWGQGTLVTVSS VL: DIQETQSPSSLSASVGDRVTITCRASQGISNYLNWYQQKPGKAPKLLIYHTSRLHSGVPSRFSGSVSGTDFTLTISSLQPEDFATYFCQQGNTLPYTFGQGTKVEIKR | 463 ng/mL | 100% | 750 s | 26.2 s | 0.00815 µg/mL | 49.2% | 73.4% | 0.0348 µg/mL
